In patent US20220340657A1:

Assays:
[1] = biological target: cyno-LAG3-hFc (cynomolgus monkey); test: ELISA
[2] = biological target: cyno-LAG3-hFc (cynomolgus monkey); test: Biacore

positive control antibody Ref (BMS-986016)
EC50 [1]: 35.3 nM
Kd [2]: 836 nM
